One data set concerns human Aβ40. Kind of data set: Human Aβ40 in plasma, time-response after single i.v. dose (Example 26). The data set is classed as in vivo, APPSWE-tg mice. The settings on record: 25 mg/kg single i.v. An excerpt:
(§1) The objective of this study was to evaluate the time-response relationship of the mouse version of the Fc-Nep (mFc-Nep, SEQ ID NO 14) in plasma of female APPSWE-tg mice and C57BL/6 mice after a single dose. The specific purpose is to find out how long the reducing effect of mFc-Nep on Aβ stays in the plasma, and to correlate the effect to the level of exposure of test compound in plasma. The γ-secretase inhibitor M-550426 is included as a positive compound.
(§2) 21-23 weeks old female APPSWE-tg mice and 24 weeks old female C57BL/6 mice (6 mice/group) received vehicle or mFc-Nep at 5 or 25 mg/kg as a single intravenous injection and Aβ40 was analysed at different time points after injection (between 1.5-336 hours, i.e., up to 2 weeks). M-550426 was administrated per orally at 300 μmol/kg 3 hours before termination. For both mouse models, APPSWE-tg and C57BL/6, a positive control and blank groups were included. The following groups were included for the APPSWE-tg mice: 25 mg/kg: 1.5, 72, 168 and 336 hours; 5 mg/kg): 336 hours (2 weeks). For C57BL/6 mice: 25 mg/kg: 168 and 336 hours; 5 mg/kg): 1.5, 168 and 336 hours. […]

A further data set deals with human Aβ42. Kind of data set: Human Aβ42 in plasma, time-response after single i.v. dose (Example 26). The data set is classed as in vivo, APPSWE-tg mice. Conditions: 25 mg/kg single i.v.
The nature of data set [1]: Plasma exposure in APPSWE-tg mice (Example 26). The data set is classed as in vivo. Conditions: single intravenous injection of 25 mg/kg. The protocol: (§3) 21-23 weeks old female APPSWE-tg mice and 24 weeks old female C57BL/6 mice (6 mice/group) received vehicle or mFc-Nep at 5 or 25 mg/kg as a single intravenous injection and Aβ40 was analysed at different time points after injection (between 1.5-336 hours, i.e., up to 2 weeks). M-550426 was administrated per orally at 300 μmol/kg 3 hours before termination. For both mouse models, APPSWE-tg and C57BL/6, a positive control and blank groups were included. The following groups were included for the APPSWE-tg mice: 25 mg/kg: 1.5, 72, 168 and 336 hours; 5 mg/kg): 336 hours (2 weeks). For C57BL/6 mice: 25 mg/kg: 168 and 336 hours; 5 mg/kg): 1.5, 168 and 336 hours. […] Blood collection and plasma processing were basically as described in Example 25 The analysis of mouse Aβ40 levels in plasma of C57BL6 mice was as described in Example 25 The analysis of human Aβ40 and Aβ42 levels in plasma of APPSWE-tg mice was as described in Example 25 (as described in the last APP-tg study).

A further data set concerns mouse Aβ40. Description: Mouse Aβ40 in plasma, time-response after single i.v. dose (Example 26). The data set is classed as in vivo, C57BL/6 mice. The settings on record: 25 mg/kg single injection, 2 weeks (336 hours).
From the text: as §1, §2

Data set [2] is described as follows: Plasma exposure in C57BL/6 mice (Example 26). The data set is classed as in vivo. The settings on record: 25 mg/kg single injection. The protocol: as §3
Data set [3] is described as follows: Observations of animal health (Example 26). It is filed as in vivo, APPSWE-tg mice and C57BL/6 mice. Conditions: 5 or 25 mg/kg single i.v., up to 336 hours. Here is the method:
as §3

Data set [4] relates to amyloid β 1-40. Kind of data set: Degradation of Aβ 1-40 in human plasma pool (Example 28). The data set is classed as biochemical. The settings on record: room temperature, 1 hour. Here is the method:
(§4) Blood from twelve individuals (6 females and 6 males) were collected into pre-chilled heparin-plasma tubes at the healthcare centre (AstraZeneca) at three different time points. Plasma was prepared by centrifugation at 2500×g for 20 min at 4° C. Plasma samples were collected and transferred to pre-chilled polypropylene tubes and immediately frozen and stored at −70° C. prior to use. Plasma was thawed and pooled from 12 individuals just before the experiment. Aβ 1-40 and 1-42 in plasma pool was degraded by human Fc-Nep or mouse Fc-Nep with corresponding vehicles (50 mM Tris-HCl, 150 mM NaCl pH 7.5). The following final concentrations of the Fc-Nep constructs were used, 100, 32, 10, 3.2, 1, 0.3, 0.1 and […] and the degradation occurred at room temperature for 1 hour while shaking on an orbital shaker. The enzymatic reaction was stopped by adding Phosphoramidone (10 μM final concentration). Concentration of amyloid β 1-40 in human plasma pool was measured using ELISA kit (Biosource; KHB3481) according to the manufacturers instructions.

For data set [5], the system named is Aβ 1-42. Kind of data set: Degradation of Aβ 1-42 in human plasma pool (Example 28). The data set is classed as biochemical. Conditions: room temperature, 1 hour. The protocol:
as §4
A final concentration of 4.7 mM EDTA was added to the tubes before the concentration of Aβ42 was analyzed using ELISA kit Innotest® β-Amyloid1-42 (Innogenetics, lot#177462, ref#80177) according to the manufacturers instructions.

Data set [6] relates to amyloid β 1-40. Description: Degradation of Aβ 1-40 in APPswe-tg mouse plasma pool (Example 28). The data set is classed as biochemical. The settings on record: room temperature, 1 hour. The protocol:
Mouse plasma collected from 9 animals was stored at −70° C. Plasma was thawed and pooled just before the experiment. Aβ 1-40 and 1-42 in plasma pool was degraded by human Fc-Nep or mouse Fc-Nep with corresponding vehicles (50 mM Tris-HCl, 150 mM NaCl pH 7.5). […] The enzymatic reaction was stopped by adding Phosphoramidone (10 μM final concentration).
After degradation, before concentration of amyloid β 1-40 in tg-mouse plasma pool was measured using ELISA kit (Biosource; KHB3481), the plasma samples were diluted 20 times in standard diluent buffer, according to manufacturers instructions.

In data set [7] the test system is Aβ 1-42. Description: Degradation of Aβ 1-42 in APPswe-tg mouse plasma pool (Example 28). The data set is classed as biochemical. Conditions: room temperature, 1 hour. Here is the method: Mouse plasma collected from 9 animals was stored at −70° C. Plasma was thawed and pooled just before the experiment. Aβ 1-40 and 1-42 in plasma pool was degraded by human Fc-Nep or mouse Fc-Nep with corresponding vehicles (50 mM Tris-HCl, 150 mM NaCl pH 7.5). The following final concentrations of the Fc-Nep constructs were used, 100, 32, 10, 3.2, 1, 0.3, 0.1 and […] and the degradation occurred at room temperature for 1 hour while shaking on an orbital shaker. The enzymatic reaction was stopped by adding Phosphoramidone (10 μM final concentration).
After degradation, a final concentration of 4.7 mM EDTA was added to the tg-mouse plasma tubes and the plasma samples were diluted 3 times in sample diluent, before the concentration of Aβ42 was analyzed using ELISA kit Innotest® β-Amyloid1-42 (Innogenetics, lot#177462, ref#80177) according to the manufacturers instructions. The highest concentration (100 μg/ml) of human Fc-Nep and mouse Fc-Nep degraded human plasma amyloid β 1-40 by 71% and 77%, respectively and Aβ 1-42 by 34% and 53%, respectively, as compared to plasma without Fc-Nep treatment.

Setting [8] is: highest concentration 100 μg/ml.

Consider one molecule from US20080242590A1, “New Method 706” (ASTRAZENECA AB, priority 2007, published 2008).

B1: mFc-Nep: mouse version of the Fc-Nep, SEQ ID NO 14 (protein, listed as Mus musculus)
chain: METDTLLLWVLLLWVPGSTGDVPRDCGCKPCICTVPPVSSVFIFPPKPKDVLTITLTPKVTCVVVAISKDDPEVQFSWFVDDVEVHTAQTQPREEQFASTFRSVSELPIMHQDWLNGKEFKCRVNSAAFPAPIEKTISKTKGRPKAPQVYTIPPPKEQMAKDKVSLTCMITDFFPEDITVEWQWNGQPAENYKNTQPIMNTNGSYFVYSKLNVQKSNWEAGNTFTCSVLHEGLHNHHTEKSLSHSPGKYDDGICKSSDCIKSAARLIQNMDASVEPCTDFFKYACGGWLKRNVIPETSSRYSNFDILRDELEVILKDVLQEPKTEDIVAVQKAKTLYRSCINESAIDSRGGQPLLKLLPDIYGWPVASDNWDQTYGTSWTAEKSIAQLNSKYGKKVLINFFVGTDDKNSTQHIIHFDQPRLGLPSRDYYECTGIYKEACTAYVDFMISVARLIRQEQSLPIDENQLSLEMNKVMELEKEIANATTKPEDRNDPMLLYNKMTLAKLQNNFSLEVNGKSFSWSNFTNEIMSTVNINIQNEEEVVVYAPEYLTKLKPILTKYSPRDLQNLMSWRFIMDLVSSLSRNYKESRNAFRKALYGTTSETATWRRCANYVNGNMENAVGRLYVEAAFAGESKHVVEDLIAQIREVFIQTLDDLTWMDAETKKKAEEKALAIKERIGYPDDIISNENKLNNEYLELNYREDEYFENIIQNLKFSQSKQLKKLREKVDKDEWISGAAVVNAFYSSGRNQIVFPAGILQPPFFSAQQSNSLNYGGIGMVIGHEITHGFDDNGRNFNKDGDLVDWWTQQSANNFKDQSQCMVYQYGNFSWDLAGGQHLNGINTLGENIADNGGIGQAYRAYQNYVKKNGEEKLLPGLDLNHKQLFFLNFAQVWCGTYRPEYAVNSIKTDVHSPGNFRIIGTLQNSAEFADAFHCRKNSYMNPERKCRVW
For B1, the “Aβ40 levels compared to vehicle” value was determined as 91% in the data set on human Aβ40 (1.5 hours) and 58% in the data set with human Aβ40 (two weeks (336 hours)). In addition, the “Aβ42 levels compared to vehicle” value in the data set with human Aβ42 (1.5 hours) stood at 87%; in the data set on human Aβ42 (two weeks (336 hours)), 44%. Also, the Plasma exposure was determined as 299 µg/mL in [1] (1.5 hours), 60 µg/mL in data set [1] (336 hours) and 48 µg/mL in [2] (336 hours). Further, the “Reduction of mouse Aβ40 levels in plasma compared to vehicle” value with mouse Aβ40 was determined as 73%. Further, the plasma half-life result in data set [2] is “long”. Further, in [3], the “Observations of the animal health” value is given as “no overt adverse effects”. For the same molecule, the figures for the “Degradation of amyloid β 1-40 compared to plasma without treatment” value in the data set with amyloid β 1-40 [4] (setting [8]) and in the data set on amyloid β 1-40 [6] (setting [8]) were 71% and 77%, respectively. Further, the EC50 was 400 nM in the data set on amyloid β 1-40 [4], 180 nM in the data set with Aβ 1-42 [5], 340 nM in the data set on amyloid β 1-40 [6] and 820 nM in the data set with Aβ 1-42 [7]. For the same molecule, the “Degradation of Aβ 1-42 compared to plasma without treatment” value in the data set with Aβ 1-42 [5] (setting [8]) is 19%; with Aβ 1-42 [7] (setting [8]), 53%.

The EC50 is the midpoint of the concentration-response curve.
